# Measured values: IntAct's records for PubMed 17641689
# B1: Retinoic acid receptor RXR-alpha (Mus musculus), P28700 (parent)
# chain: MDTKHFLPLDFSTQVNSSSLNSPTGRGSMAVPSLHPSLGPGIGSPLGSPGQLHSPISTLSSPINGMGPPFSVISSPMGPHSMSVPTTPTLGFGTGSPQLNSPMNPVSSTEDIKPPLGLNGVLKVPAHPSGNMASFTKHICAICGDRSSGKHYGVYSCEGCKGFFKRTVRKDLTYTCRDNKDCLIDKRQRNRCQYCRYQKCLAMGMKREAVQEERQRGKDRNENEVESTSSANEDMPVEKILEAELAVEPKTETYVEANMGLNPSSPNDPVTNICQAADKQLFTLVEWAKRIPHFSELPLDDQVILLRAGWNELLIASFSHRSIAVKDGILLATGLHVHRNSAHSAGVGAIFDRVLTELVSKMRDMQMDKTELGCLRAIVLFNPDSKGLSNPAEVEALREKVYASLEAYCKHKYPEQPGRFAKLLLRLPALRSIGLKCLEHLFFFKLIGDTPIDTFLMEMLEAPHQAT
# partner: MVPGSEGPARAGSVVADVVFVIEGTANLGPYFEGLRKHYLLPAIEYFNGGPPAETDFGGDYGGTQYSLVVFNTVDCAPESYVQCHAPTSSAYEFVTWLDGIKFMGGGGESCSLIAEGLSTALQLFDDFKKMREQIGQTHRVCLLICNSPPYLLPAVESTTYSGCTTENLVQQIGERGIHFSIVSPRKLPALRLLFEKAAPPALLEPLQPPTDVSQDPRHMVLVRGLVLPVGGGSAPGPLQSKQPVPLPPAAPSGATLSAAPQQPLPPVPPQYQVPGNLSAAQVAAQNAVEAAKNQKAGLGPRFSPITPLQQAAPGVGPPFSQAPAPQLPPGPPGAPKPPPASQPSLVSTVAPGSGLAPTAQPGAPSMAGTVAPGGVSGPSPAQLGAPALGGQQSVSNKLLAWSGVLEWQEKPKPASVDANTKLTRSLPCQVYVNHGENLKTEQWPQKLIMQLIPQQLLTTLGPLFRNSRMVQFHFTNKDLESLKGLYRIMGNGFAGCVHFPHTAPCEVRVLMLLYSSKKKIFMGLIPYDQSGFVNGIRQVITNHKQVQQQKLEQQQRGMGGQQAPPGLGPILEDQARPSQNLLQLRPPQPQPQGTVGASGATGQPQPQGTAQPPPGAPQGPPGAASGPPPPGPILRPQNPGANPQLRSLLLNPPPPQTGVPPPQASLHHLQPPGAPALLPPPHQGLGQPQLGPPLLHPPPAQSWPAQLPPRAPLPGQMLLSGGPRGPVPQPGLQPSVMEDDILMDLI
# B2: Retinoic acid receptor alpha (Homo sapiens), P10276 (parent)
# chain: MASNSSSCPTPGGGHLNGYPVPPYAFFFPPMLGGLSPPGALTTLQHQLPVSGYSTPSPATIETQSSSSEEIVPSPPSPPPLPRIYKPCFVCQDKSSGYHYGVSACEGCKGFFRRSIQKNMVYTCHRDKNCIINKVTRNRCQYCRLQKCFEVGMSKESVRNDRNKKKKEVPKPECSESYTLTPEVGELIEKVRKAHQETFPALCQLGKYTTNNSSEQRVSLDIDLWDKFSELSTKCIIKTVEFAKQLPGFTTLTIADQITLLKAACLDILILRICTRYTPEQDTMTFSDGLTLNRTQMHNAGFGPLTDLVFAFANQLLPLEMDDAETGLLSAICLICGDRQDLEQPDRVDMLQEPLLEALKVYVRKRRPSRPHMFPKMLMKITDLRSISAKGAERVITLKMEIPGSMPPLIQEMLENSEGLDTLSGQPGGGGRDGGGLAPPPGSCSPSLSPSSNRSSPATHSP
# partner: B1 partner
# Variants of: B1
# Settings: with med25_human MED25, Q71SY5
row,Variant,effect of a mutation on the interaction
1,L460A,disrupting interaction
2,M459A,disrupting interaction

# Variants of: B1
# Settings: with med25_human MED25, Q71SY5
# Remark: another data set of the same source
row,Variant,effect of a mutation on the interaction
1,F455A,disrupting interaction

# Variants of: B1
# Settings: with med25_human MED25, Q71SY5
# Remark: another data set of the same source
row,Variant,effect of a mutation on the interaction
1,E461Q,decreasing interaction

# Variants of: B2
# Settings: with med25_human MED25, Q71SY5
row,Variant,effect of a mutation on the interaction
1,M413A,disrupting interaction
2,L414A,disrupting interaction

# Variants of: B2
# Settings: with med25_human MED25, Q71SY5
# Remark: another data set of the same source
row,Variant,effect of a mutation on the interaction
1,I410A,disrupting interaction
2,L409A,disrupting interaction

# Variants of: B2
# Settings: with med25_human MED25, Q71SY5
# Remark: another data set of the same source
row,Variant,effect of a mutation on the interaction
1,E415Q,disrupting interaction
2,E412Q,disrupting interaction
